Measurements taken from patent US8226943B2, “Antibodies to notch receptors” (OncoMed Pharmaceuticals, Inc., priority 2008, dated 2012).
pKd: −log10 of the molar value.

How the values were obtained:
[1] = molecular target: T1, hNotch1 (Homo sapiens, UniProt P46531); assay: Biacore affinity, human Notch1; assay type: binding; conditions: Table 6, Biacore; read-out: IgG Dissociation Constant (KD) h-Notch1
T1 construct: recombinant human and mouse Notch proteins (EGF10-15 for Notch1, 2, & 4; EGF9-14 for Notch3) were immobilized on a CM5 chip
Experimental: The affinities for human and mouse Notch1, Notch2, Notch3, and Notch4 were determined using a Biacore 2000 instrument. Briefly, recombinant human and mouse Notch proteins (EGF10-15 for Notch1, 2, & 4; EGF9-14 for Notch3) were immobilized on a CM5 chip using standard amine based chemistry (NHS/EDC). For hNotch2, EGF1-12 was also tested for binding. Different antibody concentrations (1-100 nM) were injected over the protein surfaces and kinetic data were collected over time. The data was fit using the simultaneous global fit equation to yield dissociation constants (KD, nM) for each Notch (Table 3).
The sequences of the heavy chain and light chain are provided in SEQ ID NO: 49 and SEQ ID NO:18, respectively. The heavy chain variable region is provided in SEQ ID NO:50 and the light chain variable region is provide SEQ ID NO:13. The heavy chain CDR3 sequence of 59R5 comprises SIFYTT, SEQ ID NO:51. The other CDR sequences of 59R5 are identical to 59R1. […] Both antibodies bind human and murine Notch2 and Notch3 receptors with sub-nanomolar affinity (see Table 6).

[2] = system: PN8 pancreatic tumor cells; assay: PN8 pancreatic tumor xenograft growth; assay type: in vivo, NOD/SCID mice; conditions: for PN8 Tumor vol relative to the control group: combination with gemcitabine, control is gemcitabine alone, antibody 15 mg/kg once per week
Experimental: The 59R1 IgG2 antibody was also tested in vivo in the breast tumor xenograft lines OMP-B34, OMP-B39, OMP-B44, PE13, and UM-T1, the pancreas tumor xenograft line OMP-PN8, and the colon tumor xenograft line OMP-C8. These tumor xenograft lines were established by adhering to procedures described in Al-Hajj et al., 2003, Proc. Natl. Acad. Sci. USA, 100:3983-3988. Female NOD/SCID immuno-compromised mice 7-10 weeks old were used for the establishment of the breast tumor xenografts and male NOD/SCID mice were used for the OMP-Pn8 and OMP-C8 tumor-models (Harlan, Indianapolis, Ind.). The 59R1 IgG2 antibody was also tested in vivo in a Colo-205 colon tumor xenograft model. Female immunodeficient bg/nu XID mice on a Swiss CD-1 background were used for the Colo-205 xenograft tumor model. In case of the breast cancer models, slow-releasing estrogen pellets (0.36 mg) had to be implanted. Mice were subcutaneously injected on the right flank with 50,000 (OMP-B34, OMP-B39, OMP-B44, PE13, and UM-T1) or 1×10^7 (Colo-205) viable cells, respectively, in a mixture of PBS (without magnesium or calcium) and Matrigel at a 1:1 ratio. The injected total volume per mouse was 200 μl with 50% being Matrigel. Once the tumor had reached a size between 65-200 mm^3, the mice were randomized. Antibodies were administered weekly and tumors measured twice weekly. LZ1 (a human antibody that recognizes lyzozyme) or 1B711 (a murine IgG1 antibody that recognizes the hapten trinitrophenol) was used as a control antibody for treatment of each tumor type. Tumor volume was calculated as described Al-Hajj et al. (2003). Data are expressed as the mean and the mean±S.E.M. Group means were compared using Student's two-tailed, unpaired t-test. […] All statistical analysis was performed using Microsoft EXCEL and Graph Pad PRISM.
In one embodiment, NOD/SCID mice were injected with PN8 pancreatic tumor cells. The tumors were allowed to grow for approximately 33 days until they had reached an average tumor volume of 150 mm^3. The mice were treated with gemcitabine at 20 mg/kg once per week for four weeks in combination with control antibody, anti-Notch2/3 antibody 59R1, or anti-Notch2/3 antibody 59R5.
Tumor volumes and p values for each experiment are shown relative to the control group. The PE13, C28 and Colo205 studies were carried out as described in Example 14. PN8 studies were carried out as described above. For the PN8 experiment, the control is gemcitabine alone and values for 59R1 and 59R5 are the combinations with gemcitabine. Antibodies were dosed once per week at 15 mg/kg for all experiments.

[3] = molecular target: human Notch2 (Homo sapiens, UniProt Q04721); assay: FACS binding to transiently transfected HEK-293 cells, human Notch2; parameters: expressed in transfected cells; host or cells: HEK-293, stably transfected
Experimental: The ability of the 59R1 IgG2 antibody to cross-react with other Notch receptors was determined by FACS assay using HEK-293 cells transiently transfected with the human Notch1, Notch2, Notch3 or Notch4 expression plasmid and green fluorescent protein (GFP) as a transfection control. GFP positive cells indicated expression of the transgene. The 59R1 IgG2 was added to the cells at 2 μg/ml and detected by PE-conjugated goat anti-human Fc gamma specific (Jackson Immunochemicals). All Notch constructs were full length.
The binding epitope of 59R5 was determined. As was described in Example 3 for analysis of antibody 59R1, several point mutants were created within full-length Notch1, converting residues within EGF10 to the corresponding amino acids in human Notch 2. Mutants in full-length Notch sequences were generated by QuikChange® mutagenesis (Stratagene) and verified by sequencing. HEK 293 cells were transiently transfected with expression vectors encoding human Notch2, human Notch1, or human Notch1 with residues 382-386 mutated to the corresponding human Notch2 residues. Cells were also co-transfected with a plasmid encoding green fluorescent protein (GFP) to mark those cells that received transfected plasmid. […] 59R1 and 59R5 were detected by PE-conjugated goat anti-human Fc gamma specific antibody (Jackson Immunochemicals, #109-116-170). […]

Sequence of human Notch2 (Q04721 26-2471): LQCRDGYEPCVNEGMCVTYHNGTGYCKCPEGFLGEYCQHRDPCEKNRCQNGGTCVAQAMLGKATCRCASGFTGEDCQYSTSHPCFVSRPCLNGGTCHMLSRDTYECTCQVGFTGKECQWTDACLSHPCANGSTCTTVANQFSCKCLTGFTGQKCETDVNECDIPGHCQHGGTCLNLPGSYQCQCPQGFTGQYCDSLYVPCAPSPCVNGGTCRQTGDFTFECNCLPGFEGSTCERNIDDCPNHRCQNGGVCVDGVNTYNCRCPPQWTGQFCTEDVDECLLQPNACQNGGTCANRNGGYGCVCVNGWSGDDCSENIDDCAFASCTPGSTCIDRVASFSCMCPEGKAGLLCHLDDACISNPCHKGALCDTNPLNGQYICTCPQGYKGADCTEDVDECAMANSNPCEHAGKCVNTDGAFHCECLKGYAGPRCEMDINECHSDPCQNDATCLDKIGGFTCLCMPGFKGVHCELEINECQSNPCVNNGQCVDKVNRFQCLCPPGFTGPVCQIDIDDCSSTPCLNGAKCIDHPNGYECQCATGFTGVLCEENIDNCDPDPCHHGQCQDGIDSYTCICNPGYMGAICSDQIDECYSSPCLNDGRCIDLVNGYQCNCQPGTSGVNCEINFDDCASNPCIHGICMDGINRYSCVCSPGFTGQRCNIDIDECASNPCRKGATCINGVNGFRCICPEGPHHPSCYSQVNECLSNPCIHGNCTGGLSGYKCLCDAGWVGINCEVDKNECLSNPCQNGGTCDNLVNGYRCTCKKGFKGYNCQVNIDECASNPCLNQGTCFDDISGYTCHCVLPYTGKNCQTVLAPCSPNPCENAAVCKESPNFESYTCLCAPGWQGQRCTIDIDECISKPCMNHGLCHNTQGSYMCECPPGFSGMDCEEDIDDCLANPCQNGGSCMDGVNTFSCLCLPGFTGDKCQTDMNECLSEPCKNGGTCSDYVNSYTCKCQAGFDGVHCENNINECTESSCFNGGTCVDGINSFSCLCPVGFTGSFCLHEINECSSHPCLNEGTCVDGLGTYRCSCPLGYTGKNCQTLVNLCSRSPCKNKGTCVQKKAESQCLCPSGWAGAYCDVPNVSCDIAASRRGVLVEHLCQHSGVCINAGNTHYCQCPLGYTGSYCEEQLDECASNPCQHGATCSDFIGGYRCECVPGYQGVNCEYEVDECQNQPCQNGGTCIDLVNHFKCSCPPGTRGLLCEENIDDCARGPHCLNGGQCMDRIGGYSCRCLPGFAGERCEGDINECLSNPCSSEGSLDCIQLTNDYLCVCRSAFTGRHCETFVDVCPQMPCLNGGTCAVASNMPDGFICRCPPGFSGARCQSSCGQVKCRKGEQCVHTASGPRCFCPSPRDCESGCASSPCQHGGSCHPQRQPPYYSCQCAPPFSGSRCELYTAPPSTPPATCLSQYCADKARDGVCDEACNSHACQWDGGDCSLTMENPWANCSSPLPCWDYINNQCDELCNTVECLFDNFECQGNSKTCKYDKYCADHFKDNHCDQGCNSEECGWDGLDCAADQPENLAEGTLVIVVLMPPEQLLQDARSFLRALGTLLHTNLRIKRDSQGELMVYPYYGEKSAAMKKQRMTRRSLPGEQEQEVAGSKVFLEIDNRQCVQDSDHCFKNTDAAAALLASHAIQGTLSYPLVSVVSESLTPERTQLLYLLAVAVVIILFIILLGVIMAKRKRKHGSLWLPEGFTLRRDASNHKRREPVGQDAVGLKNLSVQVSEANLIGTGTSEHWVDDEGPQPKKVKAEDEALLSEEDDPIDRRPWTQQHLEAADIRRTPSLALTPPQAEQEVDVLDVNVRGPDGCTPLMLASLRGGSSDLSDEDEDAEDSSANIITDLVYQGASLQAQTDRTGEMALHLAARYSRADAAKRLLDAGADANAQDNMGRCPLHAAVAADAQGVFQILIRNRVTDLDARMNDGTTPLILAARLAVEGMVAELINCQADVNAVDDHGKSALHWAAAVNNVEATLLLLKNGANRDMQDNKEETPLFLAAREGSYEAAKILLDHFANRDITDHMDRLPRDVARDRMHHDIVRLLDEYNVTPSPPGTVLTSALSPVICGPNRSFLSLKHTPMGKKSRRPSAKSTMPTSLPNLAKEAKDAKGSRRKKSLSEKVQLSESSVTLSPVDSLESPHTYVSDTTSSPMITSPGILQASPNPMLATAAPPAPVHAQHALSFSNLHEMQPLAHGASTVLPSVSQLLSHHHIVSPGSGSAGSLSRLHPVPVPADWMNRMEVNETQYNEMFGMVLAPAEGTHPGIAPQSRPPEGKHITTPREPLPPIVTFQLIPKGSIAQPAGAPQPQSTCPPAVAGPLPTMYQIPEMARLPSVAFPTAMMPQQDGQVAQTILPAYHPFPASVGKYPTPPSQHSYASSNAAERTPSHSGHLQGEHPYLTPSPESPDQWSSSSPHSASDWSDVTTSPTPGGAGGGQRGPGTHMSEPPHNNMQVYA
T1 sequence (P46531 372-601 limits assumed): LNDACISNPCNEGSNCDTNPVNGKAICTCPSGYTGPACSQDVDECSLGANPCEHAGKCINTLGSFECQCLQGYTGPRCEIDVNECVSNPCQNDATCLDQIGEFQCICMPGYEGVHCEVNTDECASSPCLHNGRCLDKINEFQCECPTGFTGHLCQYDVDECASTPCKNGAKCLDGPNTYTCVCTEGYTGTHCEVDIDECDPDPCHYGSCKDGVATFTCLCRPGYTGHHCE

| Substance | pKd [1] | PN8 Tumor vol relative to the control group [2] | PN8 pancreatic tumor growth relative to control antibody ([2]; established tumors, 15 mg/kg once a week) | binding to full-length human Notch2 (FACS) [3] | PN8 tumor growth, antibody in combination with gemcitabine ([2]; gemcitabine 20 mg/kg once per week for four weeks) |
| --- | --- | --- | --- | --- | --- |
| 59R1: human IgG2 antibody binding Notch2 and Notch3; heavy and light chain SEQ ID NO:16 and 18; ATCC PTA-9547 | < 8.00 | 0.27 | inhibit pancreatic tumor growth | specifically binds |  |
| 59R5: human antibody that specifically binds human Notch 2 and human Notch 3; heavy and light chain SEQ ID NO:49 and 18; ATCC PTA-10170 | < 8.00 | 0.11 |  | bound | inhibited tumor growth at a similar level as antibody 59R1 |
